B1: Telomere length regulation protein TEL2 homolog (Homo sapiens), Q9Y4R8 (parent)
chain: MEPAPSEVRLAVREAIHALSSSEDGGHIFCTLESLKRYLGEMEPPALPREKEEFASAHFSPVLRCLASRLSPAWLELLPHGRLEELWASFFLEGPADQAFLVLMETIEGAAGPSFRLMKMARLLARFLREGRLAVLMEAQCRQQTQPGFILLRETLLGKVVALPDHLGNRLQQENLAEFFPQNYFRLLGEEVVRVLQAVVDSLQGGLDSSVSFVSQVLGKACVHGRQQEILGVLVPRLAALTQGSYLHQRVCWRLVEQVPDRAMEAVLTGLVEAALGPEVLSRLLGNLVVKNKKAQFVMTQKLLFLQSRLTTPMLQSLLGHLAMDSQRRPLLLQVLKELLETWGSSSAIRHTPLPQQRHVSKAVLICLAQLGEPELRDSRDELLASMMAGVKCRLDSSLPPVRRLGMIVAEVVSARIHPEGPPLKFQYEEDELSLELLALASPQPAGDGASEAGTSLVPATAEPPAETPAEIVDGGVPQAQLAGSDSDLDSDDEFVPYDMSGDRELKSSKAPAYVRDCVEALTTSEDIERWEAALRALEGLVYRSPTATREVSVELAKVLLHLEEKTCVVGFAGLRQRALVAVTVTDPAPVADYLTSQFYALNYSLRQRMDILDVLTLAAQELSRPGCLGRTPQPGSPSPNTPCLPEAAVSQPGSAVASDWRVVVEERIRSKTQRLSKGGPRQGPAGSPSRFNSVAGHFFFPLLQRFDRPLVTFDLLGEDQLVLGRLAHTLGALMCLAVNTTVAVAMGKALLEFVWALRFHIDAYVRQGLLSAVSSVLLSLPAARLLEDLMDELLEARSWLADVAEKDPDEDCRTLALRALLLLQRLKNRLLPPASP
partner: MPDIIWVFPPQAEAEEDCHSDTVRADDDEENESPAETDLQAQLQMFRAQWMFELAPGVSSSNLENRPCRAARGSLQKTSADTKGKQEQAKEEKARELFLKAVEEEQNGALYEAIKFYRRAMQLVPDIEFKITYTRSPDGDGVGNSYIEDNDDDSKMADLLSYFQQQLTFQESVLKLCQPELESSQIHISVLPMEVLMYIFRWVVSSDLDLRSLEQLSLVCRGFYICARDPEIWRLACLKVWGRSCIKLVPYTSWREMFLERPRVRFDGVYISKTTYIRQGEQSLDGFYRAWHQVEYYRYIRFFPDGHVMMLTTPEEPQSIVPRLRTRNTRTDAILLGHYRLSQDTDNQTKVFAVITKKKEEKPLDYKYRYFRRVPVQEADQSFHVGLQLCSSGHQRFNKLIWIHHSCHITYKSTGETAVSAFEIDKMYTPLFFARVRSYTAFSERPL
B2: TELO2-interacting protein 1 homolog (Homo sapiens), O43156 (parent)
chain: MAVFDTPEEAFGVLRPVCVQLTKTQTVENVEHLQTRLQAVSDSALQELQQYILFPLRFTLKTPGPKRERLIQSVVECLTFVLSSTCVKEQELLQELFSELSACLYSPSSQKPAAVSEELKLAVIQGLSTLMHSAYGDIILTFYEPSILPRLGFAVSLLLGLAEQEKSKQIKIAALKCLQVLLLQCDCQDHPRSLDELEQKQLGDLFASFLPGISTALTRLITGDFKQGHSIVVSSLKIFYKTVSFIMADEQLKRISKVQAKPAVEHRVAELMVYREADWVKKTGDKLTILIKKIIECVSVHPHWKVRLELVELVEDLLLKCSQSLVECAGPLLKALVGLVNDESPEIQAQCNKVLRHFADQKVVVGNKALADILSESLHSLATSLPRLMNSQDDQGKFSTLSLLLGYLKLLGPKINFVLNSVAHLQRLSKALIQVLELDVADIKIVEERRWNSDDLNASPKTSATQPWNRIQRRYFRFFTDERIFMLLRQVCQLLGYYGNLYLLVDHFMELYHQSVVYRKQAAMILNELVTGAAGLEVEDLHEKHIKTNPEELREIVTSILEEYTSQENWYLVTCLETEEMGEELMMEHPGLQAITSGEHTCQVTSFLAFSKPSPTICSMNSNIWQICIQLEGIGQFAYALGKDFCLLLMSALYPVLEKAGDQTLLISQVATSTMMDVCRACGYDSLQHLINQNSDYLVNGISLNLRHLALHPHTPKVLEVMLRNSDANLLPLVADVVQDVLATLDQFYDKRAASFVSVLHALMAALAQWFPDTGNLGHLQEQSLGEEGSHLNQRPAALEKSTTTAEDIEQFLLNYLKEKDVADGNVSDFDNEEEEQSVPPKVDENDTRPDVEPPLPLQIQIAMDVMERCIHLLSDKNLQIRLKVLDVLDLCVVVLQSHKNQLLPLAHQAWPSLVHRLTRDAPLAVLRAFKVLRTLGSKCGDFLRSRFCKDVLPKLAGSLVTQAPISARAGPVYSHTLAFKLQLAVLQGLGPLCERLDLGEGDLNKVADACLIYLSVKQPVKLQEAARSVFLHLMKVDPDSTWFLLNELYCPVQFTPPHPSLHPVQLHGASGQQNPYTTNVLQLLKELQ
partner: B1 partner

Variants of: B1
Conditions: with fbx9_human FBXO9, Q9UK97
In the case of S485A;S487A, the “effect of a mutation on the interaction” value is reported as “decreasing interaction strength”.

Variants of: B2
Conditions: with fbx9_human FBXO9, Q9UK97
With S828A the “effect of a mutation on the interaction” value was “disrupting interaction strength”.
